# Measured values taken from patent US20110070235A1.
# “And” between values parts separate entries of the source, which are not always exact repeats. Equal entries are not always repeated.
# Molecular target: M2 protein of A/Hong Kong/483/1997, expressed on cells (Influenza A virus A/Hong Kong/483/1997 (H5N1))
# Assay: not given
row,Molecule,FACS M2-HK MFI
1,"3253_P10 (antibody, V domains shown) VH: QVQLQESGPGLLKPSDTLALTCTVSGGSITSDYWSWIRQPPGRGLDWIGFFYNGGSTKYNPSLKSRVTISADTSKNQLSLKLTSVTAADTGVYYCARHDAKFSGSYYVASWGQGTRVTVSS VL: DIQMTQSPSSLSASVGDRVTISCRASQSISTYLNWYQQQPGKAPKVLISGATDLQSGVPSRFSGSGSGTDFTLTISSLQPEDFATYYCQQSYNTPLIFGQGTKLEIK",43 MFI
2,"3243_J07 (antibody, V domains shown) VH: QVQLQESGPGLLKPSDTLALTCTVSGGSITSDYWSWIRQPPGRGLDWIGFFYNGGSTKYNPSLKSRVTISADTSKNQLSLKLTSVTAADTGVYYCARHDVKFSGSYYVASWGQGTRVTVSS VL: DIQMTQSPSSLSASVGDRVTISCRASQSISTYLNWYQQQPGKAPKVLISGATNLQSGVPSRFSGSGSGTDFTLTISSLQPEDFATYYCQQSYNTPLIFGQGTKLEIK",131 MFI
3,"3244_I10 (antibody, V domains shown) VH: QVQLQESGPGLLKPSDTLALTCTVSGGSITSDYWSWIRQPPGRGLDWIGFFYNGGSTKYNPSLKSRVTISADTSKNQLSLKLTSVTAADTGVYYCARHDAKFSGSYYVASWGQGTRVTVSS VL: DIQMTQSPSSLSASVGDRVTISCRASQSISTYLNWYQQQPGKAPKVLIFGATNLQSGVPSRFSGSGSGTDFTLTISSLQPEDFATYYCQQSYNTPLIFGQGTKLEIK",434 MFI
4,"TCN-032 (8I10) (antibody, V domains shown) VH: QVQLQESGPGLVKPSETLSLTCTVSGSSISNYYWSWIRQSPGKGLEWIGFIYYGGNTKYNPSLKSRVTISQDTSKSQVSLTMSSVTAAESAVYFCARASCSGGYCILDYWGQGTLVTVS VL: DIQMTQSPSSLSASVGDRVTITCRASQNIYKYLNWYQQRPGKAPKGLISAASGLQSGVPSRFSGSGSGTDFTLTITSLQPEDFATYYCQQSYSPPLTFGGGTRVEIK",754 MFI and 1080 MFI
5,"3244_H04 (antibody, V domains shown) VH: EVQLVESGGGLVQPGGSLRLSCTASGLSVSSTYMNWVRQAPGKGLEWVSVFYSETRTYYADSVKGRFTVSRHNSNNTLYLQMNSLRAEDTAVYYCARVQRLSYGMDVWGQGTTVTVSS VL: DIQMTQSPSSLSASVGDRVTITCRASQSISTYLNWYQKRPGKAPKLLVYGASSLQSGVPSRFSGSGSGTDFTLTIASLQPEDSAVYYCQQTYSIPLFGQGTRLEIK",963 MFI
6,"3245_O19 (antibody, V domains shown) VH: EVQLVESGGGLVQPGGSLRLSCTASGLSVSSTYMNWVRQAPGKGLEWVSVFYSETRTYYADSVKGRFTVSRHNSNNTLYLQMNSLRVEDTAVYYCARVQRLSYGMDVWGQGTTVTVSS VL: DIQMTQSPSSLSASVGDRVTITCRASQSISTYLNWYQKRPGKAPKLLVYGASTLQSGVPSRFSGSGSGTDFTLTIASLQPEDSATYYCQQTYSIPLFGQGTRLEIK",919 MFI
7,"3139_P23 (antibody, V domains shown) VH: QVQLQESGPRLVKPSESLSLTCTVSGGSISNSFWGWIRQPPGEGLEWIGYVYNSGNTKYNPSLKSRVTISRDTSKSQLYMKLRSVTAADTAVYYCARHDDASHGYSISWGHGTLVTVSS VL: DIQMTQSPSSLSASVGDRVTITCRASQTISTYLNWYQQKSGKAPKLLIYAASGLQSGVPSRFSGSGSGTDFTLTISSLQPEDFATYFCQQSYNTPLTFGQGTKVEIK",110 MFI
8,"3260_D19 (antibody, V domains shown) VH: DMQLVESGGGLVPPGGSLRLSCAASGFSVSDNYINWVRQAPGKGLDWVSVFYSADRTSYADSVKGRFTVSSHDSKNTVYLQMNSLRAEDTAVYYCARVQKSYYGMDVWGQGTTVTVSS VL: GIQMTQSPSSLSASVGDRVTITCRASQSISRYLNWYLQKPGKAPKLLISGASSLQSGVPSRFSGTGSGTEFTLTISSLQPEDFATYYCQQTFSIPLFGQGTKVEIK",846 MFI
9,"3242_P05 (antibody, V domains shown) VH: DMQLVESGGGLVPPGGSLRLSCAASGFSVSDNYINWVRQAPGKGLDWVSVFYSADRTSYADSVKGRFTVSSHDSKNTVYLQMNSLRAEDTAVYYCARVQKSYYGMDVWGQGTTVTVSS VL: GIQMTQSPSSLSASVGDRVTITCRASQSISRYLNWYLQKPGKAPKLLISGASSLQSGVPSRFSGTGSGTEFTLTISSLQPEDFATYYCQQTFSIPLFGQGTKVEIK",596 MFI
10,"3241_G23 (antibody, V domains shown) VH: QVQLQQSGPGLVKPSQTLSLTCTVSGGPVSGGGYSWNWIRQRPGQGLEWVGFMFHSGSPRYNPTLKSRITISVDTSKNLVSLKLSSVTAADTAVYFCARVGQMDKYYAMDVWGQGTTVTVSS VL: DIQMTQSPSSLSSSVGDRVTITCRASQSIGAYVNWYQQKAGKAPQVLIFGASNLQSGVPSRFSGSGSGTDFTLTISSLQPEDFATYFCQQTYSTPITFGQGTRLEIK",1700 MFI
11,"3252_C13 (antibody, V domains shown) VH: QVQLQESGPGLVKPSETLSLTCTVSGASISSDYWSWIRLPPGKGLEWIGYIYNRGSTKYTPSLKSRVTISLDTAENQFSLRLRSVTAADTAIYYCARHVGGHTYGIDYWGQGTLVTVSS VL: DIQMTQSPSSLSASVGDRVTITCRASQSISNYLNWYQHKPGEAPKLLNYAASSLQSGVPSRFSASGSGTDFTLTISSLQPEDFATYYCQQSYNTPITFGQGTRLEIK",449 MFI
12,"3420_I23 (antibody, V domains shown) VH: QVQLQESGPGLVKPSETLSVTCKVSGDSISSYSWSWIRQPPGKGLEWVGYLYYSGSTKYNPSLKSRTTISVDTSTNQLSLKLSFVTAADTAVYFCARTGSESTTGYGMDVWGQGTTVTVSS VL: DIQMTQSPSSLSASVGDRVTITCRASQSISTYLNWYQQKPGKAPKLLIYAASSLHSGVPSRFSGSGSGTDFALTISSLQPEDFATYYCQQSYSPPITFGQGTRLEIK",112 MFI
13,"3362_B11 (antibody, V domains shown) VH: QVQLQASGPGLVKPSETLSLTCTVSGDSITSGAYYWTWIRQHPGKGLEWIGYIYYSGNTYYNPSLKSRVTISLDTSKNQFSLKVNSVTAADTAVYYCARAASTSVLGYGMDVWGQGTTVTVSS VL: DIQMTQSPSSLSASVGDRVTITCRASQSISRYLNWYQQEPGKAPKLLVYAASSLQSGVPSRFSGSGSGTDFTLTISSLQPEDFATYYCQQSYSTPLTFGQGTRLEIK",218 MFI
14,"3255_J06 (antibody, V domains shown) VH: QVQLQESGPGLVKPSETLSLTCTVSGASISSDYWSWIRLPPGKGLEWIGYIYNRGSTKYTPSLKSRVTISLDTAENQFSLRLRSVTAADTAVYYCARHVGGHTYGIDYWGQGTLVTVSS VL: DIQMTQSPSSLSASVGDRVTITCRASQSISNYLNWYQHKPGEAPKLLNYAASSLQSGVPSRFSASGSGTDFTLSISGLQPEDFATYYCQQSYNTPITFGPGTRLEIK",442 MFI
15,"3248_P18 (antibody, V domains shown) VH: QVQLQESGPGLVKPSETLSLTCTVSGGSISAYHWSWIRQPPGKGLEWIGHIFDSGSTYYNPSLKSRVTISLDASKNQLSLRLTSVTASDTAIYYCARPLGSRYYYGMDVWGQGTTVTVSS VL: DIQMTQSPSSLSASVGDRVTITCRASQSISRYLNWYQQKPGKAPKLLIYGASTLQNGAPSRFSGSGSGTDFTLTISSLQPEDSATYLCQQSYSVPAFGGGTKVEVK",967 MFI
16,"3136_G05 (antibody, V domains shown) VH: QVQLQESGPGLVKPSETLSLTCSVSGGSISSDFWSWIRQPPGKGLEWIGYVYNRGSTKYSPSLKSRVTISADMSKNQFSLNMSSVTAADTAVYYCAKNGRSSTSWGIDVWGKGTTVTVSS VL: DIQMTQSPSSLSASVGDRLTITCRASQSISTYLHWYQQKPGKAPKLLIYAASSLQSGVPSRFSGSRSGTDFTLTISSLQPDDFATYYCQQSYSPPLTFGPGTKVDMK",109 MFI
17,"3259_J21 (antibody, V domains shown) VH: QVQLQESGPRVVRPSETLSLTCTVSGGSISSYNWIWIRQPPGKGLEWIGHIYDYGRTFYNSSLQSRPTISVDASKNQLSLRLTSVTASDTAVYYCARPLGILHYYAMDLWGQGTTVTVSS VL: DIQMTQSPLSVSVSVGDRVTIACRASQSIDKFLNWYQQKPGKAPKLLIYGASNLHSGAPSRFSASGSGTDFTLTITNIQTEDFATYLCQQSFSVPAFGGGTKVEIK",1670 MFI

# Molecular target: M2e
# Assay: peptide ELISA, mAb 5 ug/mL
row,Molecule,ELISA A450
1,TCN-032 (8I10) (antibody),0.13
